# Data reported in paper PMC8298602, “14-3-3-protein regulates Nedd4-2 by modulating interactions between HECT and WW domains” (Communications Biology, 2021).
# Residue numbers refer to the chain shown, from its start.
# B1: phosphorylated Nedd4-2^335–455 (domain or fragment, human, UniProt Q96PU5 335-455, looked up)
# chain: SSRLRSCSVTDAVAEQGHLPPPSAPAGRARSSTVTGGEEPTPSVAYVHTTPGLPSGWEERKDAKGRTYYVNHNNRTTTWTRPIMQLAEDGASGSATNSNNHLIEPQIRRPRSLSSPTVTLS
# modifications: phosphoserine at 342, phosphothreonine at 367, phosphoserine at 448
# notes: source: E. coli BL21 (DE3), purified (Chelating Sepharose, TEV cleavage, Superdex 75), phosphorylated by PKA in vitro; not shown: His6, N-terminal, cleaved; GB1 domain of protein G, N-terminal, cleaved
# B2: Nedd^335-455pS342 (domain or fragment, human, UniProt Q96PU5 335-455, looked up)
# chain: B1 chain with T33A, S114A
# modifications: phosphoserine at 342
# notes: as for B1
# B3: Nedd^335-455pS342 + pS448 (domain or fragment, human, UniProt Q96PU5 335-455, looked up)
# chain: B1 chain with T33A
# modifications: phosphoserine at 342, phosphoserine at 448
# notes: The same variant was used in native PAGE, SV-AUC and for the crystal with 14-3-3ηΔC; source: E. coli BL21 (DE3), purified (Chelating Sepharose, TEV cleavage, Superdex 75), phosphorylated by PKA in vitro; not shown: His6, N-terminal, cleaved; GB1 domain of protein G, N-terminal, cleaved
# B4: Nedd^335-455pS342 + pT367 (domain or fragment, human, UniProt Q96PU5 335-455, looked up)
# chain: B1 chain with S114A
# modifications: phosphoserine at 342, phosphothreonine at 367
# notes: as for B1
# B5: Nedd^335-455pS448 (domain or fragment, human, UniProt Q96PU5 335-455, looked up)
# chain: B1 chain with S8A, T33A
# modifications: phosphoserine at 448
# notes: also called pSer^448; source: E. coli BL21 (DE3), purified (Chelating Sepharose, TEV cleavage, Superdex 75), phosphorylated by PKA in vitro; not shown: His6, N-terminal, cleaved; GB1 domain of protein G, N-terminal, cleaved
# B6: Nedd^335-455pT367 (domain or fragment, human, UniProt Q96PU5 335-455, looked up)
# chain: B1 chain with S8A, S114A
# modifications: phosphothreonine at 367
# notes: as for B1
# B7: Nedd^335-455pT367 + pS448 (domain or fragment, human, UniProt Q96PU5 335-455, looked up)
# chain: B1 chain with S8A
# modifications: phosphothreonine at 367, phosphoserine at 448
# notes: as for B1
# B8: 14-3-3η (natural protein, human)
# chain: MGDREQLLQRARLAEQAERYDDMASAMKAVTELNEPLSNEDRNLLSVAYKNVVGARRSSWRVISSIEQKTMADGNEKKLEKVKAYREKIEKELETVCNDVLSLLDKFLIKNCNDFQYESKVFYLKMKGDYYRYLAEVASGEKKNSVVEASEAAYKEAFEISKEQMQPTHPIRLGLALNFSVFYYEIQNAPEQACLLAKQAFDDAIAELDTLNEDSYKDSTLIMQLLRDNLTLWTSDQQDEEAGEGN
# notes: 14-3-3 protein eta, human; also called 14-3-3 protein (eta isoform); 14-3-3η dimer
# Tests used:
# 14-3-3β = molecular target: T1, 14-3-3β (human, UniProt P31946 1-246); assay: native gel or EMSA; 12% native TBE-PAGE; 240 pmol of 14-3-3 and 120 pmol of the Nedd4-2 construct loaded; details: both partners purified
# T1 construct: 14-3-3 protein beta, human
# T1 sequence (looked up): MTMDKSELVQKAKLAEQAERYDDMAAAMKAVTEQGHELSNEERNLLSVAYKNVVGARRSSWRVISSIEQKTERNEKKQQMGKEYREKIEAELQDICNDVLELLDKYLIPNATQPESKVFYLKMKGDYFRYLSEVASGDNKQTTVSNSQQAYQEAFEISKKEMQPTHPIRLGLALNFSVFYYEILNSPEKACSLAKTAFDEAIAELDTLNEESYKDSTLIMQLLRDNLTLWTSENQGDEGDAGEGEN
# 14-3-3γ = molecular target: T2, 14-3-3γ (human, UniProt P61981 2-247); assay: as above; details: both partners purified
# T2 construct: 14-3-3 protein gamma, human
# T2 sequence: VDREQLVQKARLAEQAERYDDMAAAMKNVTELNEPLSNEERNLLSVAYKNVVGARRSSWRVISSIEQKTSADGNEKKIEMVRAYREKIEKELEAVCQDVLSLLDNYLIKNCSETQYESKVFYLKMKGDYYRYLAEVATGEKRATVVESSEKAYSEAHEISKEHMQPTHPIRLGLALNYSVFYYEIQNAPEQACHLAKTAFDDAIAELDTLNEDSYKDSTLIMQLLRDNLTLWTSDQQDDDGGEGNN
# 14-3-3ε = molecular target: T3, 14-3-3ε (human, UniProt P62258 1-255); assay: as above; details: both partners purified
# T3 construct: 14-3-3 protein epsilon, human
# T3 sequence (looked up): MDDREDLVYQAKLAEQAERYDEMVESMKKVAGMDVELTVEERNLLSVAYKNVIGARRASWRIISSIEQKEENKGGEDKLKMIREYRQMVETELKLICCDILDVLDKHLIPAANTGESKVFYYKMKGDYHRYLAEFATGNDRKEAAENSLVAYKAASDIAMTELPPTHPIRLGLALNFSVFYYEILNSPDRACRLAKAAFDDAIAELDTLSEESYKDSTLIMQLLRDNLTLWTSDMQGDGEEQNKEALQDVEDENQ
# 14-3-3ζ = molecular target: T4, 14-3-3ζ (human, UniProt P63104 1-245); assay: as above; details: both partners purified
# T4 construct: 14-3-3 protein zeta, human
# T4 sequence (looked up): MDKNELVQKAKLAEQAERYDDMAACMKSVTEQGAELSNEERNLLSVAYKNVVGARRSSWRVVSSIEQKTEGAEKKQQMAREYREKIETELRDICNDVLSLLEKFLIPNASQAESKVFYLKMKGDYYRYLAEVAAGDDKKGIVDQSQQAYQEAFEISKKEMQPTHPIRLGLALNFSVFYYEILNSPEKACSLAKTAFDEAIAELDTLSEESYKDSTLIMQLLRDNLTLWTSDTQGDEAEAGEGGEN
# 14-3-3σ = molecular target: T5, 14-3-3σ (human, UniProt P31947 1-248); assay: as above; details: both partners purified
# T5 construct: 14-3-3 protein sigma, human
# T5 sequence (looked up): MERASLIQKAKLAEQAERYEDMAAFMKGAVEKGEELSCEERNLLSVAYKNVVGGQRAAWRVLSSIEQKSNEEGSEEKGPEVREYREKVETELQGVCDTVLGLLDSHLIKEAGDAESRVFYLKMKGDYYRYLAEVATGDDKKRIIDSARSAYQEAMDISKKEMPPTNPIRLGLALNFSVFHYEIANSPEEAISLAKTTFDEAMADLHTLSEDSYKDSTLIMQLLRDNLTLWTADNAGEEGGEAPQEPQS
# 14-3-3τ = molecular target: T6, 14-3-3τ (human, UniProt P27348 1-245); assay: as above; details: both partners purified
# T6 construct: 14-3-3 protein tau (theta), human
# T6 sequence (looked up): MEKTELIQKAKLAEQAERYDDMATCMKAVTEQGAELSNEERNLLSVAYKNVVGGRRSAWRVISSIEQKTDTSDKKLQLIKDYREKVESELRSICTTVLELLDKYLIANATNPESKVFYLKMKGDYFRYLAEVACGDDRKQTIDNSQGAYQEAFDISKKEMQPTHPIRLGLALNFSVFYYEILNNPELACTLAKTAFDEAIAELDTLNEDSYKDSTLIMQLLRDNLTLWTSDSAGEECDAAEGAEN
# 14-3-3η [1] = molecular target: B8; assay: AUC; sedimentation velocity, 20 °C, 20 mM Tris-HCl pH 7.5, 150 mM NaCl, 1 mM TCEP; 1 μM 14-3-3η with Nedd4-2^335–455 variants (0.05 – 5 μM); apparent KD, sw isotherm fitted with A + B ⇌ AB, 14-3-3η dimer + one Nedd4-2 molecule; details: both partners purified
# 14-3-3η [2] = molecular target: B8; assay: native gel or EMSA; 12% native TBE-PAGE; 240 pmol of 14-3-3 and 120 pmol of the Nedd4-2 construct loaded; details: both partners purified
# [3] = molecular target: the molecule itself; assay: SEC-SAXS; Superdex 200 Increase 5/150 GL, 20 mM Tris-HCl pH 7.5, 150 mM NaCl, 1 mM TCEP, 3% glycerol, 293.15 K; loaded 2.2 mg/ml Nedd4-2^186–975, 2 mg/ml 14-3-3η, 8.9 mg/ml complex (1:2, 60 μM)
binder,measurement,setting,value
B1,binding result,14-3-3β,binds
same,binding result,14-3-3γ,binds
same,binding result,14-3-3ε,binds
same,binding result,14-3-3ζ,binds
same,binding result,14-3-3σ,binds
same,binding result,14-3-3τ,binds
same,Kd,14-3-3η [1],< 30 nM
same,stoichiometry N,14-3-3η [1],2 14-3-3η protomers per Nedd4-2 protomer
B2,Kd,14-3-3η [1],400 ± 100 nM
B3,Kd,14-3-3η [1],< 30 nM
B4,binding result,14-3-3η [2],binds
B5,binding result,14-3-3η [2],binds
B6,Kd,14-3-3η [1],530 ± 30 nM
B7,binding result,14-3-3η [2],binds
B8,stoichiometry N,[3],2
